B1: A-18 (antibody, V domains shown)
VH: EVQLLESGGGLVQPGGSLRLSCAASGFTFSRYWMHWVRQAPGKGLVWVSRINSDGSSTTYADSVKGRFTISRDNAKNTLYLQMNSLRAEDTAVYYCARELYYYDSRGAEEGEGWFDPWGQGTLVTVSS
VL: QSVLTQPPSVSGAPGQRVTISCTGISSNIGAGYDVHWYQQLPGTAPKLLIYGNSNRPSGVPDRFSASKSGTSAPLAITGLQAEDEADYYCQSSDRSLSGSVFGTGTKLTVL
B2: A-22 (antibody, V domains shown)
VH: not shown
VL: EIVLTQSPGTLSLSPGERATLSCRASQTVRSDLAWYQQKPGQAPRLLIYGASTRATDISDRFSGSGSGTEFTLTISSLQSEDFAVYYCQQYYEWPPHSDSFGGGTKVEIK
B3: A-9 (antibody, V domains shown)
VH: EVQLVESGGGLVKPGRSLRLSCAASGFTFADYAMSWFRQAPGKGLEWVGFIRSKPYGGTTEYAASVKGRFTISRDDSKSIAYLQMNSLKTEDTAVYYCSRDPWYCSGGDCYAVTGSWFDPWGQGTLVTVSS
VL: DIVLTQSPSSLSASVGDRVTITCQASQDIKKYLNWYQQKPGKAPKLLIYDVSNLETGVPSRFSGSGSGTDFTFTISSLQPEDVAIYYCQQYDNLPQTFGQGTKVDIK
B4: A-6 (antibody, V domains shown)
VH: QVQLVQSGGGVVQPGRSLRLSCAASGFTFSNFAMHWVRQAPGKGLEWVAVILYDGINKYYADSVKGRFTISRGNSKNTLSLQMNSLRAEDTAVYYCARAQNYYDRSGTLQLDAFDIWGQGTMVTVSS
VL: DIVMTQSPSSLSASVGDRVTITCRASQGIRNDLGWYQQKPGKAPKLLIYAASSLQSGVPSRFSGSGSGTDFTLTISSLQPEDFATYYCLQDYNYPLTFGGGTKVEIK

Key:
[1] = target: SARS-CoV-2 B.1.617.1 (Kappa) RBD (SARS-CoV-2, UniProt P0DTC2 319-541); assay: Octet BLI single point, monovalent
[2] = target: SARS-CoV-2 L452R RBD (Epsilon) (SARS-CoV-2, UniProt P0DTC2 319-541); assay: Octet BLI single point, monovalent
[3] = target: SARS-CoV-2 B.1.1.7 N501Y (Alpha) RBD (SARS-CoV-2, UniProt P0DTC2 319-541); assay: Octet BLI single point, monovalent
[4] = target: SARS-CoV-2 P.1 Spike (Gamma) (SARS-CoV-2, UniProt P0DTC2 16-1213); assay: Octet BLI single point, monovalent
[5] = target: SARS-CoV-2 B.1.617.2 (Delta) RBD (SARS-CoV-2, UniProt P0DTC2 319-541); assay: Octet BLI single point, monovalent
[6] = target: SARS-CoV-2 B.1.351 (Beta) RBD (SARS-CoV-2, UniProt P0DTC2 319-541); assay: Octet BLI single point, monovalent
SARS-CoV-2 RBD-mFc = SARS-CoV-2 RBD-mFc (SARS-CoV-2, UniProt P0DTC2 319-541); assay: Octet BLI, IgG, avid
[7] = target: SARS-CoV-2 Alpha (B.1.1.7) spike protein (on reporter virus particles) (SARS-CoV-2, UniProt P0DTC2 14-1273); assay: cell-based or functional assay
[8] = target: SARS-CoV-2 Beta (B.1.351) spike protein (on reporter virus particles) (SARS-CoV-2, UniProt P0DTC2 14-1273); assay: cell-based or functional assay
[9] = target: SARS-CoV-2 Omicron (B.1.529) spike protein (on reporter virus particles) (SARS-CoV-2, UniProt P0DTC2 14-1273); assay: cell-based or functional assay
[10] = target: SARS-CoV-2 Gamma (P.1) spike protein (on reporter virus particles) (SARS-CoV-2, UniProt P0DTC2 14-1273); assay: cell-based or functional assay
[11] = target: SARS-CoV-2 Epsilon (B.1.427/429) spike protein (on reporter virus particles) (SARS-CoV-2, UniProt P0DTC2 14-1273); assay: cell-based or functional assay

Binder | Kd [1] [nM] | Kd [2] [nM] | Kd [3] [nM] | Kd [4] [nM] | Kd [5] [nM] | Kd [6] [nM] | Kd (SARS-CoV-2 RBD-mFc) [nM] | PsV neutralization IC50 [7] [mg/L] | PsV neutralization IC90 [7] [mg/L] | PsV neutralization IC50 [8] [mg/L] | PsV neutralization IC90 [8] [mg/L] | PsV IC50, Test 1 [9] [nM] | PsV IC50, Test 2 [9] [nM] | PsV neutralization IC50 [10] [mg/L] | PsV neutralization IC90 [10] [mg/L] | PsV neutralization IC50 [11] [mg/L] | PsV neutralization IC90 [11] [mg/L]
B1 | 0.714 | 1.22 | 1.03 | 0.553 | 0.649 | 0.444 | 0.0757 | 0.316 | 2.04 | 0.259 | 1.65 | 1.96 | 8.84 |  |  |  | 
B2 | 0.218 | 0.756 | 0.35 | 0.258 |  | 0.25 |  | 1.53 | 9.54 | 2.13 | 12.8 |  |  | 0.335 | 0.736 | 1.49 | 25.3
B3 | 6.28 |  | 10 | 15 | 12.9 | 17.8 | 0.147 | 0.019 | 0.118 | 0.028 | 0.184 | 20.8 |  |  |  |  | 
B4 |  | 1.45 | 1.46 | 2.05 |  |  | 0.146 | 0.192 | 1.21 | 0.171 | 1.47 |  |  |  |  |  | 

Reference: patent publication US20260217797A1 (Takeda / Millennium, published 2026)
